T1: human LAG-3 expressed on cells (human, UniProt P18627 23-525)
T1 sequence (looked up): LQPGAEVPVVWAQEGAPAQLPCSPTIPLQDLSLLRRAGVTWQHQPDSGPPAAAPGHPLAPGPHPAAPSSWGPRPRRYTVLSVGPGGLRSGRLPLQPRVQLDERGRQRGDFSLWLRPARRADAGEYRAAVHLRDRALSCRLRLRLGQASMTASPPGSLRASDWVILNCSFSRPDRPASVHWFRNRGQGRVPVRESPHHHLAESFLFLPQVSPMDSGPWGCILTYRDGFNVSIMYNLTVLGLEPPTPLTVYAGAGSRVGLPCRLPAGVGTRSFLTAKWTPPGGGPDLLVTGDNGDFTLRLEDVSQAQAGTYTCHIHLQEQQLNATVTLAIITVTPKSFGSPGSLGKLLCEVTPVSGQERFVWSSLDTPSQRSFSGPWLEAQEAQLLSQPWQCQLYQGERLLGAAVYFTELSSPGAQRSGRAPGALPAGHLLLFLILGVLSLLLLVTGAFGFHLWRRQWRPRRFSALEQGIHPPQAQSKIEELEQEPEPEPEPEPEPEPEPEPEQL

T2: recombinant human LAG-3-his protein (Novoprotein) (human, UniProt P18627 23-450)
T2 construct: Bought; also called huLAG-3; not shown: His tag
T2 sequence (looked up): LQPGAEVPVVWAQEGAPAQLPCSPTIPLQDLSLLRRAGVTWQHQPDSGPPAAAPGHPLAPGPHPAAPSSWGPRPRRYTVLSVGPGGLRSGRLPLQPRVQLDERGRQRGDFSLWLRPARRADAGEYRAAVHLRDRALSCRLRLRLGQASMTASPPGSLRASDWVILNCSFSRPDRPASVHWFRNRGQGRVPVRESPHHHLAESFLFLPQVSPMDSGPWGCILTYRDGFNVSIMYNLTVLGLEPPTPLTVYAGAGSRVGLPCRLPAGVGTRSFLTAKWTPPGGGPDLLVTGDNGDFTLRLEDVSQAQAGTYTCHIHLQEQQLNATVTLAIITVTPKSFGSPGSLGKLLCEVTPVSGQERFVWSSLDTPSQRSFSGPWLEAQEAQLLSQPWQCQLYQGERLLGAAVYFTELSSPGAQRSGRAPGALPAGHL


Tests used:
[1] = target: T1, human LAG-3 expressed on cells; test: cell-based or functional assay
[2] = target: T3, human LAG-3 ECD/Fc fusion protein (human); test: ELISA, coated huLAG-3 ECD/Fc
T3 construct: also called HuLAG-3 ECD/Fc
Method: The supernatants of hybridoma clones were primarily screened by ELISA. Briefly, 50 μl/well of […] human LAG-3 ECD/Fc in NaHCO₃ were directly coated in each well of 96-well plate overnight. Plates were washed 3 times with 1×PBST, 300 μl per well. After blocking with 1% BSA in PBST at 250 μl per well and incubating at room temperature for 1 hour, the hybridoma supernatants were added at 50 μl per well and incubated at 37° C. for 1 hour. After washing, an HRP-linked goat anti-mouse IgG Fc secondary antibody (Cat. No. A0168, Sigma) was added at 100 μl/well and the plates were incubated at room temperature for 1 hour. TMB reagent (InnoReagents) was used to detect and develop the ELISA signal at 100 μl/well for 15 minutes, the reaction was stopped with 1 Normal HCL. The plates were read with a plate reader (SpectraMax® M5e, Molecular Devices, USA) at a wavelength of 450 nm. The ELISA-positive antibody producer clones were further verified by FACS analysis using methods similar to Example 1.4, above, except that stable HEK 293F cell lines expressing either human LAG-3 or cynomolgus LAG-3 were used. Hybridomas producing LAG-3 binding activity were selected and further characterized in a receptor blocking assay (RBA).
A binding ELISA was performed in the same way as described in Example 7.2 above. Each purified antibody was 10-fold serially diluted. After blocking of a 96-well assay plate with wells containing immobilized LAG-3 ECD/Fc fusion protein targets, the purified antibody samples with diluted concentrations were added to wells of the assay plate. The HRP-linked anti-mouse IgG antibody (A0168, Sigma) and TMB reagent were used to detect and develop the ELISA signal, which were read on a SpectraMax M5e plate reader at wavelength of 450 nm. Curves were fitted using GraphPad software, and EC50 values were calculated. Similarly, a RBA was also performed as described in Example 7.3 with titrated, purified antibodies, and maximum inhibition percentages and IC50 values were determined.

[3] = target: T1, human LAG-3 expressed on cells; test: FACS, HEK 293F huLAG-3 cells
Method: (§1) FAGS analysis was performed using methods similar to Example 1.4, above, except that stable HEK 293F cell lines expressing either human LAG-3 cynomolgus LAG-3 were used. LAG-3 expressing cells were charged at 2×10⁴ cell per well into 96-well assay round-bottomed assay plates (Cat. No. 3799; Corning) and stained with purified anti-LAG-3 antibodies. LAG-3 antibodies were detected with AlexaFluor® Donkey anti-Mouse Ig (H+L) Highly Cross-Adsorbed Secondary Antibody (Cat. No. A21202; Invitrogen), and cell fluorescence was monitored using a flow cytometer. The data were processed by GraphPad software, and EC50 values were calculated.

[4] = target: T4, cynomolgus LAG-3 expressed on HEK 293F cells (cynomolgus); test: FACS, HEK 293F cynoLAG-3 cells
T4 construct: whole, on cells
Method: as §1

[5] = target: T3, human LAG-3 ECD/Fc fusion protein; test: FACS RBA, huLAG-3 ECD/Fc on Raji; competitor MHC Class II
Method: Supernatants displaying LAG-3 specific activity were tested for the ability to block LAG-3 receptor binding to MHC Class II. Raji human B cell lymphoblasts express high levels of MCH Class II and were used as binding targets for LAG-3 ECD/Fc proteins described above. Briefly, Raji cells were harvested and resuspend in FACS buffer and plated in 96-well plates (2×10⁵ cells/well). Anti-LAG-3 hybridoma supernatants were mixed with soluble LAG-3 ECD/Fc and the mixture was added to wells at a final volume of 100 μl/well. After adding the mixture to cells, the plates were incubated at room temperature for 30 minutes. After washing twice with PBS, the cells were incubated with anti-human IgG Alexa Fluor® 488 secondary antibody at 4° C. for 1 hour, washed twice with PBS, then fluorescence was measured on a flow cytometer.
Purified anti-LAG-3 antibodies also were tested in a RBA in the same manner as described in Example 7.3. Antibodies were also tested in an antigen-specific T cell activation assay, as follows: A huLAG-3 expressing murine T hybridoma cell line was generated to order by ChemPartner (Shanghai, CN). Mouse splenocytes from the same strain of mice were used as effector cells. The hybridoma expressing the huLAG-3 receptor protein is capable of binding to MHC Class II-positive mouse splenocytes, with inhibitory effect via engagement of Class II. The assay tests for anti-LAG-3 antibody-mediated reversal of the inhibitory effect, as measured by increased production of IL-2. Mouse spleenocytes were harvested from 6-8 week-old female C57BL/6 mice, red blood cells were lysed using Red Blood Cell Lysis Buffer (Sigma-Aldrich; R7757) according to the maker's instructions. Next, 50 μl T hybridoma-huLAG-3 cells (2×10⁶ cells/ml) were seeded in each well of a 96-well culture plate, and then a series of anti-LAG-3 monoclonal antibodies in solution at 50 μl/well were added and incubated at 37° C. for 30 min. Mouse splenocytes (4×10⁶ cells/ml) and the antigen (20 μg/ml) were mixed and incubated at 37° C. for 30 min. The mixture (100 μl/well) was added into each well that was already seeded with T hybridoma-huLAG-3 cells and anti-LAG-3 mAbs. The mixture of antibodies, T hybridoma-huLAG-3 cells, mouse splenocytes, and the antigen was cultured for 3 days.

[6] = target: T2, recombinant human LAG-3-his protein …; test: BLI Octet, Ab on AHC sensor, huLAG-3-his; test group 4
Method: (§2) All 18 humanized antibodies (Table 34) and a chimeric antibody having the parental murine VH and VL domains (mAb747c) were ranked by dissociation rate constant (koff). Briefly, antibodies were characterized for affinities and binding kinetics by Octet®RED96 biolayer interferometry (Pall ForteBio LLC). Antibodies were captured by Anti-hIgG Fc Capture (AHC) Biosensors (Pall) at a concentration of 100 nM for 30 seconds. Sensors were then dipped into running buffer (1× pH7.2 PBS, 0.05% Tween 20, 0.1% BSA) for 60 seconds to check baseline. Binding was measured by dipping sensors into a single concentration of recombinant human LAG-3-his protein (Novoprotein). Dissociation was followed by dipping sensors into running buffer for 1200 seconds. The association and dissociation curves were fitted to a 1:1 Langmuir binding model using FortéBio Data Analysis software (Pall). In each test group, the off-rates of antibodies were able to be compared with that of mAb747c. The off-rate ratios were calculated by the off-rate of antibody to that of mAb747c of its group and were compared all together. The lower the ratio was, the higher was the affinity of the antibody.

[7] = target: T2, recombinant human LAG-3-his protein …; test: BLI Octet, Ab on AHC sensor, huLAG-3-his; test group 2
Method: as §2, with “9” for “18”, “25)” for “34)”, “Octet RED96” for “Octet®RED96”, “FortéBio” for “ForteBio”, “Anti-HIgG” for “Anti-hIgG”, “(Pall).” for “(Pall). In each test group, the off-rates of antibodies were able to be compared with that of mAb747c. The off-rate ratios were calculated by the off-rate of antibody to that of mAb747c of its group and were compared all together. The lower the ratio was, the higher was the affinity of the antibody.”
The seven Fab clones were converted to full IgG proteins. Briefly, the VH and VL genes were produced synthetically and then cloned into vectors containing coding sequences for the human IgG1 and human kappa constant domains, respectively. The heavy chain and cognate light chain plasmids were co-transfected into HEK 293E cells, individually. After approximately six days of post-transfection cell culture, the supernatants were harvested and subjected to Protein A affinity chromatography. The affinity of purified antibodies was ranked by Octet® RED96 biolayer interferometry (see, Example 9.1, supra).

Max IL-2 [1] [pg/mL]	EC50 [2] [nM]	EC50 [3] [nM]	Max-MFI [3] [MFI]	EC50 [4] [nM]	Max-MFI [4] [MFI]	IC50 [5] [nM]	Max. Inhib. (%) [5] [%]	koff [6] [s⁻¹]	off-rate ratio to that of mAb747c [6] [%]	koff [7] [s⁻¹]	off-rate ratio to that of mAb747c [7] [%]	Binder
539	0.24	13.4	73.1	79.6	31.9	4.8	96.1	–	–	–	–	mAb748 (antibody, V domains shown, murine hybridoma anti-LAG-3 mAb) VH: EVQMQQSGAELVRPGASVKLSCTVSGFNIKDDYMHWVKQRPEQGLEWIGWIDPENGDTEYASKFQGKATITADTSSNTAYLQLNSLTSEDTAVYYCTYFDYWGQGTTLTVSS VL: not shown
–	–	–	–	–	–	–	–	0.0012	226	–	–	HumAb747-59 (antibody, human IgG1, V domains shown, humanized mAb747; human IgG1/kappa constant domains) VH: EVQLVQSGAEVKKPGATVKLSCTASDFNIKDDYMHWVKQRPEQGLEWIGWIVPENGNTEYASKFQGRATITADTSTNTAYLELSSLRSEDTAVYYCTVYGDYWGQGTTVTVSS VL: DIQMTQSPSSLSASVGDRVTITCRASQEISGYLSWLQQKPGGAIKRLIYAASTLDSGVPSRFSGSRSGSDYTLTISSLQPEDFADYYCLQYASYPLTFGQGTKLELK

More lines, now with the values behind:

Binder	Max IL-2 [1] [pg/mL]	EC50 [2] [nM]	EC50 [3] [nM]	Max-MFI [3] [MFI]	EC50 [4] [nM]	Max-MFI [4] [MFI]	IC50 [5] [nM]	Max. Inhib. (%) [5] [%]	koff [6] [s⁻¹]	off-rate ratio to that of mAb747c [6] [%]	koff [7] [s⁻¹]	off-rate ratio to that of mAb747c [7] [%]
mAb742 (antibody, V domains shown, murine hybridoma anti-LAG-3 mAb) VH: QGQLQQSGAELVRPGASVTLSCKASGYTFNDYEMHWVKQTPVHGLEWIGAIDPETGGTAYNQKFKGKAILTADKSSSTAYMELRSLTSEDSAVYYCIRWGSTVFPYWGQGTLVTVS VL: DGVLTQTPLSLPVNIGDQASISCKSTKSLLNSDGFTYLDWYLQKPGQSPQLLIYLVSNRFSGVPDRFSGSGSGTDFTLKISRVEAEDLGVYYCFQSNYLPWTFGGGTKLEIK	733	0.22	2.8	103	56.4	48.5	3.84	96.5	–	–	–	–
mAb744 (antibody, V domains shown, murine hybridoma anti-LAG-3 mAb; also called rnAb744) VH: QVQLQQSGAELVRPGTSVTLSCKASGYTFTDYEMHWMKQTPVHGLEWIGAIDPATGGTAYNQKFKGKAILTADKSSSTAYMDFRSLTSEDSAVYYCIRWGTTVFPYWGQGTLVTVS VL: DVVLTQTPLSLPVNIGDQASISCKSTKSLLNSDGFTYLDWYLQKPGQSPQLLIYLVSNRFSGVPDRFSGSGSGTDFTLKISRVEAEDLGVYYCFQSNYLPWTFGGGTKLEIK	612	0.19	9.5	135	67	37.8	10.8	96.5	–	–	–	–
D1-70-IgG (antibody, V domains shown, human IgG1/kappa constant domains) VH: EVQLVQSGAEVKKPGASVKVSCKASGFNIKDDYMHWVRQAPGQGLEWIGWIVPRNGNTMYASKFQGRVTITADTSINTAYMELSRLRSDDTAVYYCTVYGDYWGQGTTVTVSS VL: DIQMTQSPSSLSASVGDRVTINCRASQEISGYLSWLQQKPEGTIKRLIYAASTLDLGVPSRFSGSRSGSDYTLTISSLQPEDFATYYCLQYASYPLTFGGGTKVEIK	–	–	–	–	–	–	–	–	–	–	0.0026	160

Source: patent publication US20210188980A1 (SHANGHAI EPIMAB BIOTHERAPEUTICS, published 2021)
